Values of other authors, collected in article PMC2827818.

Target: IFNalpha2 (Homo sapiens) (UniProt P01563)

- Kd: 10 nM
Substance: IFNAR2 ECD (from UniProt P48551)
